Assay results: patent US20140336127A1, “Stabilized Peptide Helices For Inhibiting Dimerization Of Chemokine C Motif Receptor 2 (CCR2)” (Yissum Research Development Company of the Hebrew …, priority 2012, published 2014)
Starred links: 1 amine or outer side, 2 acyl side, 3 side chain; linkers in the order of their positions; H or OH if unused. Positions of bridges follow the written chain, without caps; N, C: chain ends. Non-standard residues stand in square brackets, D forms with d. Residues, ends and D or L forms follow the SMILES beside them. No end group written: not given here. BU = not defined here; CO = O=C([*:1])[*:2]

Tests used:
intestinal peptidases = test: metabolic stability BBMV assay (degradation by intestinal peptidases); type: in vitro ADME, rat; conditions: 37° C.
Description: The enzymatic reaction is performed similar to what described in Ovadia et al. (2009, Bioorg Med Chem 18, 580-589): 2 mM stock solutions of the tested compounds are diluted with serum or purified brush border membrane vesicles (BBMVs) solution to a final concentration of 0.5 mM. During incubation at 37° C. samples are taken for a period of 90 minutes. The enzymatic reaction is stopped by adding 1:1 v/v of ice cold acetonitrile and centrifuge (4000 g, 10 min) before analysis.
The BBMVs are prepared from combined duodenum, jejunum, and upper ileum (male Wistar rats) by a Ca++ precipitation method (Gante, J., Angew Chem Int Edit 1994, 33, (17), 1699-1720; Hess et al., ibid). Purification of the BBMVs is assayed using GGT, LAP and alkaline phosphatase as membrane enzyme markers.
M3D-1 was tested for metabolic stability to degradation by intestinal peptidases using the BBMV assay described above. The linear CCR2b(61-67) peptide was used as a control.

CCR2 = target: T1, CCR2 (Homo sapiens, UniProt P41597); test: transwell migration assay with MCP-1 as chemoattractant (THP-1 cells); type: cell-based
T1 construct: endogenous in cells; host or cells: THP-1
T1 sequence (P41597 1-360 isoform P41597-2): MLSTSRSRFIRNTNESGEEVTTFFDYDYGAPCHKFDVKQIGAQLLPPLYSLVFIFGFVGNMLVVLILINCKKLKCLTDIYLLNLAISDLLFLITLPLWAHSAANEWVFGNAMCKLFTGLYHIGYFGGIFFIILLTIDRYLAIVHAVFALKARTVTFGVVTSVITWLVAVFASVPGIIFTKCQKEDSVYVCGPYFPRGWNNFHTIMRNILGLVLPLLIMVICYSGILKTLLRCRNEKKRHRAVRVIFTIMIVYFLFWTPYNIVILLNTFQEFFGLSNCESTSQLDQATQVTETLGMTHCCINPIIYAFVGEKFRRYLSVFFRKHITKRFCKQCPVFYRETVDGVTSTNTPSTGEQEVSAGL
Description: A transwell migration assay (Bignold, L. P., J Immunol Methods 1987, 105, (2), 275-80) was performed using MCP-1 as a chemoattractant. The chemokine MCP-1 reacts only with the chemokine receptors CCR2 and CCR4. […] In this experiment, THP-1 cells were placed in the upper well of the trans-migration plate and specific migration was induced by placing MCP-1 in the lower well. The cells were allowed to migrate spontaneously or toward the chemokine, and counted after migration. To evaluate the effect of hCCR2b(61-67) on MCP-1-induced migration, the peptide (10 μM) was incubated with the cells and the number of migrating cells in the lower wells were determined.
(§1) The simple transwell migration assay (Mandelboim, O. Protocol Exchange (2006) doi:10.1038/nprot.2006.210) was used for evaluating the chemotactic migration in the presence of M3D-1. M3D-1 inhibited THP-1 cells migration towards MCP-1 (FIG. 7 stripes).

CXCR4 = target: T2, CXCR4 (Homo sapiens, UniProt P61073); test: transwell migration assay, SDF-1 (CXCL12) induced migration; type: cell-based; conditions: cells migrating towards SDF-1; FIG. 7 crosshatch
T2 construct: endogenous in cells; host or cells: THP-1 (inferred; b171 says only 'cells')
T2 sequence (P61073 whole entry): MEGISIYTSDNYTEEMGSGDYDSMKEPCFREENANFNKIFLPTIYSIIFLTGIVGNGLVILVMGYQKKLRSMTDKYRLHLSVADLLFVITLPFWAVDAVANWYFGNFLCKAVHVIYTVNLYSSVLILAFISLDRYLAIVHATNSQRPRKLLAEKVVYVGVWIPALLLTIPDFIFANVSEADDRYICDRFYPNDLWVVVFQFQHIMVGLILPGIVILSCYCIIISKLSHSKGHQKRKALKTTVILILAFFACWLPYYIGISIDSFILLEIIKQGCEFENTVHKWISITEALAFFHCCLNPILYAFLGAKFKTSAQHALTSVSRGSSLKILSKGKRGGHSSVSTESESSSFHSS
Excerpt: as §1
SDF-1 is known to have strong chemotactic effects following specific interaction with the receptor CXCR4 (Bleul et al., ibid).

THP-1 cells = test: spontaneous migration of THP-1 cells without additional chemokines; type: cell-based, human; conditions: FIG. 7 dots
Description: THP-1 cells spontaneous migration was evaluated without additional chemokines.

cells = test: in vitro cytotoxicity assay; type: cell-based

degradation by intestinal peptidases (intestinal peptidases; FIG. 9, linear control peptide) | inhibition of MCP-1-mediated migration (CCR2; THP-1 cells migrating towards MCP-1, concentration not given, FIG. 2 / FIG. 7) | concentration range blocking specific CCR2 chemokine mediated cell migration (CCR2; summary statement in the description) | inhibition of SDF-1 induced migration (CXCR4) | Compound | number of cells that migrate in the absence of chemokine, with or without peptide (THP-1 cells) | toxicity to cells (cells) | time stable to degradation by intestinal peptidases (intestinal peptidases; FIG. 9)
completed degraded after about one hour |  |  |  | CC[C@H](C)[C@H](NC(=O)[C@H](CC(C)C)NC(=O)[C@@H](NC(=O)[C@@H](NC(=O)[C@H](CC(C)C)NC(=O)[C@@H](N)CCSC)C(C)C)C(C)C)C(=O)N[C@@H](CC(C)C)C(=O)O [hCCR2b(61-67), MLVVLIL] (H-MLVVLIL-OH; N-terminus and C-terminus assumed) |  |  | 
 | inhibited | low micro-molar range | no significant inhibition | M-L-V-BU-L-I-BU-NH2 (MLV[BU]LI[BU]-NH2; bridge 4-7 via CO; reading uncertain; also: printed as M-L-V-BU-L-I-BU-NH2) [M3D-1] | no significant difference | not toxic to cells | at least 3 hours
